{"source": "patent US20240109937A1", "about": "(Johns Hopkins, published 2024)", "binders": {"B1": {"name": "AIF (370-394) (peptide)", "peptide": "Ac-QSVGVSSGKLLIKLKDGRKVETDHI-NH2", "notes": "also called AIF mimetic peptide (amino acids 370-394)"}, "B2": {"name": "Cyclic peptide derived from Formula (I), X2: hR (peptide)", "peptide": "CI[hArg]LKDGRKVC", "modifications": "disulfide 1-11; also: Y1 can be H (free N-terminus), Y2 can be amino (C-terminal amide)", "notes": "Only the changed residues are printed; X stands for the non-natural residue"}, "B3": {"name": "AIF (381-389) LLox (peptide)", "peptide": "Ac-CIKLKLLRKVC-NH2", "modifications": "disulfide 1-11", "SMILES": "CC[C@H](C)[C@@H]1NC(=O)[C@@H](NC(C)=O)CSSC[C@@H](C(N)=O)NC(=O)[C@H](C(C)C)NC(=O)[C@H](CCCCN)NC(=O)[C@H](CCCNC(=N)N)NC(=O)[C@H](CC(C)C)NC(=O)[C@H](CC(C)C)NC(=O)[C@H](CCCCN)NC(=O)[C@H](CC(C)C)NC(=O)[C@H](CCCCN)NC1=O"}, "B4": {"name": "AIF (381-389) ox (peptide)", "peptide": "Ac-CIKLKDGRKVC-NH2", "modifications": "disulfide 1-11", "SMILES": "CC[C@H](C)[C@@H]1NC(=O)[C@@H](NC(C)=O)CSSC[C@@H](C(N)=O)NC(=O)[C@H](C(C)C)NC(=O)[C@H](CCCCN)NC(=O)[C@H](CCCNC(=N)N)NC(=O)CNC(=O)[C@H](CC(=O)O)NC(=O)[C@H](CCCCN)NC(=O)[C@H](CC(C)C)NC(=O)[C@H](CCCCN)NC1=O"}, "B5": {"name": "AIF (370-394)-stapled peptides (peptide)", "peptide": "Ac-QSCGVSSG[Lys(N3)]LLCKLKDGRKV[Hpra]TDHI-NH2", "modifications": "disulfide 3-12; triazole 9-21", "notes": "also called stapled AIF (370-394) analog"}}, "note": "Bridge positions count the residues as written; N and C are the ends. Square brackets hold non-standard residues; d marks the D form. Ends that are not written are not given here. Lys(N3) = [N-]=[N+]=NCCCC[C@H](N)C(=O)O; hArg = N=C(N)NCCCC[C@H](N)C(=O)O; Tle = CC(C)(C)[C@H](N)C(=O)O; Hpra = C#CCC[C@H](N)C(=O)O; Nle = CCCC[C@H](N)C(=O)O", "data": [{"target": "Apoptosis-inducing factor (AIF) protein (UniProt O95831 122-613, limits assumed)", "sequence (O95831 122-613 limits assumed)": "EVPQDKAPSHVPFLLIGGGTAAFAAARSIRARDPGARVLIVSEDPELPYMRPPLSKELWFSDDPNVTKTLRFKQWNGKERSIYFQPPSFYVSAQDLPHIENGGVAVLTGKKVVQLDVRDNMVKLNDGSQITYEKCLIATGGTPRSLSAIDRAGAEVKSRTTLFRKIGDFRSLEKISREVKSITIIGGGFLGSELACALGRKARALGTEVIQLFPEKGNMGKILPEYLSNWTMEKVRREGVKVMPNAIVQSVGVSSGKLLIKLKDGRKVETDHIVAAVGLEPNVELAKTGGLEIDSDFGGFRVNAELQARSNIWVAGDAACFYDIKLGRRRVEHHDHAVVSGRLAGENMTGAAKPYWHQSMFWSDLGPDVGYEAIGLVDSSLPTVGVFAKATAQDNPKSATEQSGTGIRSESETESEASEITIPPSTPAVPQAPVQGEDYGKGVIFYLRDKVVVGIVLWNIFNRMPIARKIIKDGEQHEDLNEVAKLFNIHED", "assay": "printed as 'Disrupts the complex AIF/Cyclophilin with a KD'; method not stated; target taken as AIF", "units": {"Kd": "µM"}, "values": [{"binder": "Ac-RIIPGFMCQGGDFTR-NH2", "note": "[CypA (55-69)]", "Kd": "~6"}]}, {"target": "T1, Peptidylprolyl isomerase A (PPIA), also known as cyclophilin A (CypA) (UniProt P62937 1-165)", "T1 construct": "Protein used for the in vitro KD/IC50 values", "T1 sequence (P62937 whole entry)": "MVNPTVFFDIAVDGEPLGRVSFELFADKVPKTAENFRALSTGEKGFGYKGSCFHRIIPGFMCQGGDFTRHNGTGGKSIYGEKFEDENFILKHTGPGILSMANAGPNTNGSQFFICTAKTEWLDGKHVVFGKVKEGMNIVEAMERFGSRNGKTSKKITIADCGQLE", "assay": "disruption of the AIF/Cyclophilin complex in living cells and in vitro; method not stated", "units": {"IC50": "µM"}, "values": [{"binder": "B1", "IC50": 5}]}, {"target": "T1, Peptidylprolyl isomerase A (PPIA), also …", "assay": "binding to CypA; method not stated", "units": {"Kd": "µM"}, "values": [{"binder": "B1", "Kd": "~5"}]}, {"target": "T1, Peptidylprolyl isomerase A (PPIA), also …", "assay": "KD 'determined', method not stated; target not given, taken as CypA", "units": {"Kd": "µM"}, "values": [{"binder": "B2", "Kd": 80.3}, {"binder": "CIKLK[Tle]LRKVC (disulfide 1-11, X stands for the non-natural residue)", "note": "[Cyclic peptide derived from Formula (I), X5-X6: Tle-L]", "Kd": 147}, {"binder": "CIKLKLVRKVC (disulfide 1-11)", "note": "[Cyclic peptide derived from Formula (I), X5-X6: L-V]", "Kd": 7.57}, {"binder": "CIKLKVVRKVC (disulfide 1-11)", "note": "[Cyclic peptide derived from Formula (I), X5-X6: V-V]", "Kd": 268}, {"binder": "CIKLKVLRKVC (disulfide 1-11)", "note": "[Cyclic peptide derived from Formula (I), X5-X6: V-L]", "Kd": 37.6}, {"binder": "CIKLKLIRKVC (disulfide 1-11)", "note": "[Cyclic peptide derived from Formula (I), X5-X6: L-I]", "Kd": 233}, {"binder": "CIKLKILRKVC (disulfide 1-11)", "note": "[Cyclic peptide derived from Formula (I), X5-X6: I-L]", "Kd": 89.9}, {"binder": "CIKLKIIRKVC (disulfide 1-11)", "note": "[Cyclic peptide derived from Formula (I), X5-X6: I-I]", "Kd": 58.9}, {"binder": "CIKLK[Nle][Nle]RKVC (disulfide 1-11, X stands for the non-natural residue)", "note": "[Cyclic peptide derived from Formula (I), X5-X6: Nle-Nle]", "Kd": 22.9}, {"binder": "CIKLK[Tle][Tle]RKVC (disulfide 1-11, X stands for the non-natural residue)", "note": "[Cyclic peptide derived from Formula (I), X5-X6: Tle-Tle]", "Kd": 13.6}, {"binder": "CIKLK[Nle]LRKVC (disulfide 1-11, X stands for the non-natural residue)", "note": "[Cyclic peptide derived from Formula (I), X5-X6: Nle -L]", "Kd": 30.7}, {"binder": "CIKLKLLRKVC (disulfide 1-11)", "note": "[Cyclic peptide derived from Formula (I), X5-X6: L-L]", "Kd": 1.2}, {"binder": "CIKLKL[Nle]RKVC (disulfide 1-11, X stands for the non-natural residue)", "note": "[Cyclic peptide derived from Formula (I), X5-X6: L- Nle]", "Kd": 23.9}, {"binder": "CIKLKL[Tle]RKVC (disulfide 1-11, X stands for the non-natural residue)", "note": "[Cyclic peptide derived from Formula (I), X5-X6: L- Tle]", "Kd": 151}]}, {"target": "T1, Peptidylprolyl isomerase A (PPIA), also …", "assay": "printed as 'disrupts the complex AIF/Cyclophilin with a KD'; method not stated", "units": {"Kd": "µM"}, "values": [{"binder": "B3", "Kd": "~1"}, {"binder": "B4", "Kd": "~2"}]}, {"target": "T1, Peptidylprolyl isomerase A (PPIA), also …", "assay": "printed as 'Disrupts the complex AIF/Cyclophilin with a KD'; method not stated", "units": {"Kd": "µM"}, "values": [{"binder": "B5", "Kd": "~0.8"}]}]}
